The source of these data is US6998239 (CHEMOCENTRYX, dated 2006).

Assay [1] has as its target T1, human CCX CKR with N-terminal Flag epitope, stably expressed on HEK293 cells (human, UniProt Q9NPB9 1-350).
T1 construct: also called HEK293-CCX CKR cells
T1 sequence: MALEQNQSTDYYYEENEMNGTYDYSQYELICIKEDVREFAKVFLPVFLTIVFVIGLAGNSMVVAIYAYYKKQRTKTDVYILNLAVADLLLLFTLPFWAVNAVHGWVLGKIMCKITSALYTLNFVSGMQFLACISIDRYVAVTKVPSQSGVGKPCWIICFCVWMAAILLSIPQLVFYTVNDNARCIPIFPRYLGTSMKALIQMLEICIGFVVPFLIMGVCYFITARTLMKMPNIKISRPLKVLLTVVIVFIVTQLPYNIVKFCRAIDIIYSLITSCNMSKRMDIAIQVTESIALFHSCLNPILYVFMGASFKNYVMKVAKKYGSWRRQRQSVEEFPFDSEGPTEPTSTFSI
Kind of assay: radioligand binding competition on CCX CKR stable transfectants (similar experiments).

The target of assay [2] is T1, human CCX CKR with N-terminal Flag …. The assay is described as follows: radioligand binding competition on CCX CKR stable transfectants, Scatchard transformation.
For assay [3] the target is unchanged. The assay is described as follows: displacement of 125I-ELC or 125I-TECK from CCX CKR transfectants, 200 nM cold chemokine. A general note: Displacement assays read how much labelled ligand stays bound in the presence of the test substance.

B1: murine CTACK (ligand, UniProt Q9Z1X0 26-120, looked up)
chain: LPLPSSTSCCTQLYRQPLPSRLLRRIVHMELQEADGDCHLQAVVLHLARRSVCVHPQNRSLARWLERQGKRLQGTVPSLNLVLQKKMYSHPQQQN
notes: also called mCTACK; CCL27
On to B1, for which, in assay [1], the Kd – broadly, the constant that tells how readily two partners part at equilibrium – is approximately 9 nM.

B2: human SLC (secondary lymphoid-tissue chemokine) (ligand, UniProt O00585 24-134, looked up)
chain: SDGGAQDCCLKYSQRKIPAKVVRSYRKQEPSLGCSIPAILFLPRKRSQAELCADPKELWVQQLMQHLDKTPSPQKPAQGCRKDRGASKTGKKGKGSKGCKRTERSQTPKGP
notes: also called 6Ckine
On to B2, for which the binding result in assay [2] was “binds”.

B3: murine ELC (ligand, UniProt O70460 26-108, looked up)
chain: GANDAEDCCLSVTQRPIPGNIVKAFRYLLNEDGCRVPAVVFTTLRGYQLCAPPDQPWVDRIIRRLKKSSAKNKGNSTRRSPVS
As to B3, in assay [3], the binding result was “binds”.

B4: human TECK (thymus expressed chemokine) (ligand, UniProt O15444 24-150, looked up)
chain: QGVFEDCCLAYHYPIGWAVLRRAWTYRIQEVSGSCNLPAAIFYLPKRHRKVCGNPKSREVQRAMKLLDARNKVFAKLHHNTQTFQAGPHAVKKLSSGNSKLSSSKFSNPISSSKRNVSLLISANSGL
modifications: 125I label where used as radioligand
B4: the binding result in assay [3] is reported as “binds”.

B5: mMIP-1gamma (murine macrophage inflammatory protein 1 gamma) (ligand, UniProt P51670 22-122, looked up)
chain: QITHATETKEVQSSLKAQQGLEIEMFHMGFQDSSDCCLSYNSRIQCSRFIGYFPTSGGCTRPGIIFISKRGFQVCANPSDRRVQRCIERLEQNSQPRTYKQ
notes: also called mMIP-1γ; CCF18
B5: the binding result in assay [3] is “binds”.

B6: murine TECK (ligand, UniProt O35903 24-144, looked up)
chain: QGAFEDCCLGYQHRIKWNVLRHARNYHQQEVSGSCNLRAVRFYFRQKVVCGNPEDMNVKRAMRILTARKRLVHWKSASDSQTERKKSNHMKSKVENPNSTSVRSATLGHPRMVMMPRKTNN
With B6, the binding result in assay [3] is on record as “binds”.

B7: human ELC (EBI1 ligand chemokine) (ligand, UniProt Q99731 22-98, looked up)
chain: GTNDAEDCCLSVTQKPIPGYIVRNFHYLLIKDGCRVPAVVFTTLRGRQLCAPPDQPWVERIIQRLQRTSAKMKRRSS
modifications: 125I label where used as radioligand
notes: also called MIP-3beta; MIP3beta
Take B7: the binding result in assay [2] is “binds”.
